# Experimental data taken from patent publication US9176064B2, “Bisubstrate fluorescent probes for protein kinase CK2” (University of Tartu, priority 2012, dated 2015).
# Where a SMILES comes first, the peptide text is derived from it. [ ]: non-standard residue; d: D form. The star is where a group is joined. X1 = O=C(CCCCCCCn1cnc2c(Br)c(Br)c(Br)c(Br)c21)*
# Tests used:
# Assay in all cases: Kinase panel residual activity
# Assay type in all cases: biochemical
# Conditions in all cases: compound at 1 micromolar
# PDK1 = target: T1, PDK1 (Homo sapiens, UniProt O15530)
# T1 sequence (O15530 1-556): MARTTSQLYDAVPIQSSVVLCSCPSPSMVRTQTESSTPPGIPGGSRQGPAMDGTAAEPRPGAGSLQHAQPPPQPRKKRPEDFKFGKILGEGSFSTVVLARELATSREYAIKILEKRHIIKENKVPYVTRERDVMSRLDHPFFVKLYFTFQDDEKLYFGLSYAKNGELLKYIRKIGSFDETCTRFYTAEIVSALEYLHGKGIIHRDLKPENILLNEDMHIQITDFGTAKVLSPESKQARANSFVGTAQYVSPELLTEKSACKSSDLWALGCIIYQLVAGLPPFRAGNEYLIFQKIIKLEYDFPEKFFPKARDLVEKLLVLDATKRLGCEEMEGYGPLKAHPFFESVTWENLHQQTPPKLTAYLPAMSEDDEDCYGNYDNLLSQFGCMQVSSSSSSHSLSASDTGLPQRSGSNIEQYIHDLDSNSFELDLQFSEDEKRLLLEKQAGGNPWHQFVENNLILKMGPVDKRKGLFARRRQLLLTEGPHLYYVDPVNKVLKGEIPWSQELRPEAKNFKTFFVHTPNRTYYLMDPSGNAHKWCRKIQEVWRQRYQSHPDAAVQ
# MNK2 = MNK2 (Homo sapiens, UniProt Q9HBH9)
# EPH-A2 = EPH-A2 (Homo sapiens, UniProt P29317)
# MKK6 = target: T2, MKK6 (Homo sapiens, UniProt P52564)
# T2 sequence (P52564 1-334): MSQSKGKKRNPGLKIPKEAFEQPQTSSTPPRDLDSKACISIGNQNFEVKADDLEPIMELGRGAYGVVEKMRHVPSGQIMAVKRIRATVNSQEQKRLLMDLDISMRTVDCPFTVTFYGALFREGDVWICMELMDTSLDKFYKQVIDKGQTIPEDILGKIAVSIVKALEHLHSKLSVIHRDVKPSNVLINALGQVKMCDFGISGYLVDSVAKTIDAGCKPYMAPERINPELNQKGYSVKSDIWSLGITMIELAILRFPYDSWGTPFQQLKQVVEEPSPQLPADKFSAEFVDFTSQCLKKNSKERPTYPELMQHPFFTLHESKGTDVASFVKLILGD
# GSK3b = GSK3b (Homo sapiens, UniProt P49841)
# EPH-B3 = target: T3, EPH-B3 (Homo sapiens, UniProt P54753)
# T3 sequence (P54753 34-998): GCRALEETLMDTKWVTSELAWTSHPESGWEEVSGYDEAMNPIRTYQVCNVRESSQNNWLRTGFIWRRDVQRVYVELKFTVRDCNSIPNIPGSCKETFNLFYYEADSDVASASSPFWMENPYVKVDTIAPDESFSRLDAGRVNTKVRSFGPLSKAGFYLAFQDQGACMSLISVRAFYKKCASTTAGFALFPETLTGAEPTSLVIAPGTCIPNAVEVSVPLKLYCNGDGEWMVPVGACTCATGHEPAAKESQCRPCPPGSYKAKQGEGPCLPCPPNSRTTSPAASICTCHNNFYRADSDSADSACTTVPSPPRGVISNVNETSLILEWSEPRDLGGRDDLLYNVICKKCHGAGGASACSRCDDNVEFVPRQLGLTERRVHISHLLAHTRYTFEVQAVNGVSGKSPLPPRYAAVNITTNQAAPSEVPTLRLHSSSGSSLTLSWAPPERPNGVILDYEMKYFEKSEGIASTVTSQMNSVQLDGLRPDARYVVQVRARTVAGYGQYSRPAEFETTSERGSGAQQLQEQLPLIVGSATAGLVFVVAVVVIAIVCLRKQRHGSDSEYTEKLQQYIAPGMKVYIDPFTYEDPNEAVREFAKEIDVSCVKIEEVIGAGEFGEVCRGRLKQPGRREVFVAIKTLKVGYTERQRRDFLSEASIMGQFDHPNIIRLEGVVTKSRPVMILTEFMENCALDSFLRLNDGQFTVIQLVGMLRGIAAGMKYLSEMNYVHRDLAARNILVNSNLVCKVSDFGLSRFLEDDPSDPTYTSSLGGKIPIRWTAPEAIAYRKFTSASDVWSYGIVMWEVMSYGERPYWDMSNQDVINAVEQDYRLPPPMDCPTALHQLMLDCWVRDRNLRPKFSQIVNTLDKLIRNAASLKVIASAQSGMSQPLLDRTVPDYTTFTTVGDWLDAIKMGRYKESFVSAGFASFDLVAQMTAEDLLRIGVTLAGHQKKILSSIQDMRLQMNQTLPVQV
# STK33 = STK33 (Homo sapiens, UniProt Q9BYT3)
# TrkA = TrkA (Homo sapiens, UniProt P04629)
# PKCz = target: T4, PKCz (Homo sapiens, UniProt Q05513)
# T4 sequence (Q05513 1-592): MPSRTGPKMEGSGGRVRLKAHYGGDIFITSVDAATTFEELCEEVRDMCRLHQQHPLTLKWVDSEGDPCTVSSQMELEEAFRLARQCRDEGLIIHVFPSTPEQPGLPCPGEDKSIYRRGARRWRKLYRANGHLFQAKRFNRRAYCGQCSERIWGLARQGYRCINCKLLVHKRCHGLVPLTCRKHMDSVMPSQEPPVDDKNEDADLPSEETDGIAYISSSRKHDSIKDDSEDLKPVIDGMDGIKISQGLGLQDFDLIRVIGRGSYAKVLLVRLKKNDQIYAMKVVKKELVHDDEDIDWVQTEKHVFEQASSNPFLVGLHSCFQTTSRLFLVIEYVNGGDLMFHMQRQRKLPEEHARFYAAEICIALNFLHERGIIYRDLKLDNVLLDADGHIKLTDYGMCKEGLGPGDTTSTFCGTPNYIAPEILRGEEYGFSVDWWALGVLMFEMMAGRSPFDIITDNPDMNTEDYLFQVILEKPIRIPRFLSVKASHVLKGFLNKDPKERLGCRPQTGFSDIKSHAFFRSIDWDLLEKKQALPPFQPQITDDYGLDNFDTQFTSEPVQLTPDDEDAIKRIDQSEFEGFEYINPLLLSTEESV
# GSK3b, sequence (P49841 whole entry, species assumed): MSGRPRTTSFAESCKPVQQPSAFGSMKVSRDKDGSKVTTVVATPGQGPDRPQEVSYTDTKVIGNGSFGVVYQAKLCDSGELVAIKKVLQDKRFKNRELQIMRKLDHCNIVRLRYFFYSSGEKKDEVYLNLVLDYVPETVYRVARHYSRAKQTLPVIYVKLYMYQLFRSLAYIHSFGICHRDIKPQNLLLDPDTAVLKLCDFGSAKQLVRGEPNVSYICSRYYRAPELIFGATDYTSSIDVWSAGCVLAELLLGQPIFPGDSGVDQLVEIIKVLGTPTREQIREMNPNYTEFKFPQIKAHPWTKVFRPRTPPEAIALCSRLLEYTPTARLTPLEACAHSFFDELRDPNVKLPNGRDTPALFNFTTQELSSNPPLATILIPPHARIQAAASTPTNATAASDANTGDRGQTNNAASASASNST
# EPH-A2, sequence (P29317 24-976, species assumed): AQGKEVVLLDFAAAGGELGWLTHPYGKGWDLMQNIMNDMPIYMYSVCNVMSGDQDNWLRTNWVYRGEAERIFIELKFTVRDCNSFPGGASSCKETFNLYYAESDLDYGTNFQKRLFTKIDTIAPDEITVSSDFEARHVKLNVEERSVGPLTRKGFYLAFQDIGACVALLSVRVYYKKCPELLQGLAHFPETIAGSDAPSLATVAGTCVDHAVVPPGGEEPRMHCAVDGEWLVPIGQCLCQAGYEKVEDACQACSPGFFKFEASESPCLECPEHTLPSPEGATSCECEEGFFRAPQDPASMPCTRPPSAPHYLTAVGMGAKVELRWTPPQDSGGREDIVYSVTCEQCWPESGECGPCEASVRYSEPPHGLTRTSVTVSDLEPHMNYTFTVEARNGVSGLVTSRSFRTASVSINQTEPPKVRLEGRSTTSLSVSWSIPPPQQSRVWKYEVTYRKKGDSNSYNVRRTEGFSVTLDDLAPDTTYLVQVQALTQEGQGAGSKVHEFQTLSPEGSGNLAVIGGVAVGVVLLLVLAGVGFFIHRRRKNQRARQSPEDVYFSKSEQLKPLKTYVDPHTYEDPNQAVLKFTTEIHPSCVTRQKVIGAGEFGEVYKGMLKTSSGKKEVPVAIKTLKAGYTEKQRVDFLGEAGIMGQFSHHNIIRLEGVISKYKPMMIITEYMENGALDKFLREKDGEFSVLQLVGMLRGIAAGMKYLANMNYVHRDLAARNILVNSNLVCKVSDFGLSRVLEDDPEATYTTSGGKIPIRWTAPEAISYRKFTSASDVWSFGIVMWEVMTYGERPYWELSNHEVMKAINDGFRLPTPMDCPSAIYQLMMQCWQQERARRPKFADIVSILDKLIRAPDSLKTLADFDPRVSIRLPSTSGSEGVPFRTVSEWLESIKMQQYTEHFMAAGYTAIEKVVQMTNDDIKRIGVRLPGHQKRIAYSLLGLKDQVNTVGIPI
# TrkA, sequence (P04629 33-796, species assumed): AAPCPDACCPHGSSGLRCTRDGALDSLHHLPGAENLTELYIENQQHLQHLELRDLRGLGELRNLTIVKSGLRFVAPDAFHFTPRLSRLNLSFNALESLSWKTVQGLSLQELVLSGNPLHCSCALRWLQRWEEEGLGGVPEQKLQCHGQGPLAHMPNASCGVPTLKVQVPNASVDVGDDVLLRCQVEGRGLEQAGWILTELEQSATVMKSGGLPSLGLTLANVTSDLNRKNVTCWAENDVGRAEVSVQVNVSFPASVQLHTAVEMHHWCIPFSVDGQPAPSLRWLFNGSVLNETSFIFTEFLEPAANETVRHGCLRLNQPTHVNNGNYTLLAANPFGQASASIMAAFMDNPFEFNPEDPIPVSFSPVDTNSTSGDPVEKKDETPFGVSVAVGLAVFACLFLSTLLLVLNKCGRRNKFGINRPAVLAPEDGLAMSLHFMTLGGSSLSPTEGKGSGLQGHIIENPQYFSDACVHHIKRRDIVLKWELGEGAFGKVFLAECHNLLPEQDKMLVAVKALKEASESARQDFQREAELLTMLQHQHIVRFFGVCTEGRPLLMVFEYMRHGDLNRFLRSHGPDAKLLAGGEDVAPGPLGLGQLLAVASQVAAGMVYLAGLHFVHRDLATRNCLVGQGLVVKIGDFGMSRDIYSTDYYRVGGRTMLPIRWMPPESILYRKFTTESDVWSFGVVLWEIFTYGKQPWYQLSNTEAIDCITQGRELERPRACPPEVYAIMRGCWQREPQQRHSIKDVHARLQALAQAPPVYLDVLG
# MNK2, sequence (Q9HBH9 whole entry, species assumed): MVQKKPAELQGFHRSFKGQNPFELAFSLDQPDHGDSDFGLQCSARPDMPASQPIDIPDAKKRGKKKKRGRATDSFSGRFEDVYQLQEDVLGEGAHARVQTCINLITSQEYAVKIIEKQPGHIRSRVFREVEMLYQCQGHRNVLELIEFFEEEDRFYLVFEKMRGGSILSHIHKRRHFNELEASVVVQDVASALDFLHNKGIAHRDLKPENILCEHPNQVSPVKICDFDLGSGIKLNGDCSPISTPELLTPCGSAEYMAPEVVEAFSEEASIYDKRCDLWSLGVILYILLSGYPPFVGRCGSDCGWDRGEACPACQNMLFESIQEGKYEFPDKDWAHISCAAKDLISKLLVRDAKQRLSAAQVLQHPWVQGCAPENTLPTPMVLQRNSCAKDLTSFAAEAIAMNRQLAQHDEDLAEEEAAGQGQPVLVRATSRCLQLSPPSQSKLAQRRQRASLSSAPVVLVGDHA
# STK33, sequence (Q9BYT3 whole entry, species assumed): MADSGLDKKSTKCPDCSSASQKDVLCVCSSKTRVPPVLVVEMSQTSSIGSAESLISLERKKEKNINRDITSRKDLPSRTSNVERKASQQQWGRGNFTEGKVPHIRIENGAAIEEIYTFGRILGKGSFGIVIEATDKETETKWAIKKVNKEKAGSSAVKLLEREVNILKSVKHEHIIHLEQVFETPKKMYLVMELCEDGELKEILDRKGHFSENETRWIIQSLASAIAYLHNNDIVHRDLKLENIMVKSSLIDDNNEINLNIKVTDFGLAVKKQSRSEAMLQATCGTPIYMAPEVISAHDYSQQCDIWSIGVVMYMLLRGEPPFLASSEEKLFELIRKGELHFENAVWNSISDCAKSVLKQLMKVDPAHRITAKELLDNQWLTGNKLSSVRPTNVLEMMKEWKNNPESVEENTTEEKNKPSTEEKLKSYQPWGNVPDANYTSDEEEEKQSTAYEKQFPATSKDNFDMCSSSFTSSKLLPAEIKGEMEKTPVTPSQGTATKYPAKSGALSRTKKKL
smiles,measurement,setting,value
NCCCC[C@H](NC(=O)[C@H](CC(=O)O)NC(=O)[C@H](CC(=O)O)NC(=O)[C@H](CC(=O)O)NC(=O)[C@H](CC(=O)O)NC(=O)[C@H](CC(=O)O)NC(=O)[C@@H](CC(=O)O)NC(=O)CCCCCCCn1cnc2c(Br)c(Br)c(Br)c(Br)c21)C(=O)O [TBBI-OcA-(D-Asp)-(L-Asp)5-(L-Lys)-OH] (X1-[dD]DDDDDK-OH),remaining activity at 1 µM,PDK1,86%
same,remaining activity at 1 µM,MNK2,89%
same,remaining activity at 1 µM,EPH-A2,80%
same,remaining activity at 1 µM,MKK6,82%
same,remaining activity at 1 µM,GSK3b,46%
same,remaining activity at 1 µM,EPH-B3,98%
same,remaining activity at 1 µM,STK33,96%
same,remaining activity at 1 µM,TrkA,111%
same,remaining activity at 1 µM,PKCz,105%
